System: MS2 coat protein
Assay: apparent KD of MS2 coat protein; higher = weaker reporter binding
Details: Eterna round: R107
Outline: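 In 100 mM Tris-HCl pH 7.5 with 80 mM KCl and 4 mM MgCl2, and without or with constant ligand, SNAP-549-labelled MS2 coat protein was titrated in twofold steps from 0.7 or 1.5 nM to 3 µM. Per-step times went from 0.8–1.5 h down to 10–20 min. The RNA switches were transcribed on-chip from Illumina sequencing clusters, and apparent KD is the per-design median of normalised cluster binding-curve fits.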

[1] = input ligand: theophylline 20 uM
[2] = input ligand: theophylline 2 mM
[3] = input ligand: tryptophan 2.4 mM

| Sequence | apparent KD of MS2 coat protein (input ligand: arginine 13.2 mM) | apparent KD of MS2 coat protein (input ligand: none) | apparent KD of MS2 coat protein [1] | apparent KD of MS2 coat protein [2] | apparent KD of MS2 coat protein [3] |
| --- | --- | --- | --- | --- | --- |
| UUAAUCUUAUAUGAAAACAUAUAAGCAGAAGGAGCGUGAUAAAACACAGGUAGGUCGCUGAAGGGAACAUGAGGAUCACCCAUGU [AstrosSSArgA#4] | 22.7 nM | 22.4 nM | 33.8 nM | 30.6 nM | 28.4 nM |
| UGACAUUGCUCAGAUACCAGACAUGAGCAUCAGCCAUGUACCGAGAGUACAUGUUAAAGUGUCCCUUGGCAGCUGAGCAAUGUCU [Mod of Eli's TheoBX5 #AlternateMS2 v4] | 116 nM | 328 nM | 640 nM | 371 nM | 404 nM |
| UGGCAGCACCUCAUGUGCUGCCAAGGUGAUACCAGCAUCGAAAGAUGCCCUUGGCAGCACCAACAUGAGGAUCACCCAUGUAAUA [(MT)''-(M)'-(T')-(Theo)-(Ms2)_Design1/22_7] | 26.8 nM | – | 374 nM | – | 217 nM |
| UGCACCAUAAUCAUGUUGGUGCUAGGUGAUACCAGCAUCGAAAGAUGCCCUUGGCAGCACCAACAUGAGGAUCACCCAUGUAAUA [(MT)''-(M)'-(T')-(Theo)-(Ms2)_Design1/22_3] | 60.1 nM | – | 351 nM | – | 57.9 nM |
| AGCUCGCAUCCUCAAGCGUCAAAGACGCGUCGAGGACCGGUACGGCCGCCACUCGACAAGAGGAUCACCCUUGUCUAAGCGAGCA [TrypAX 4 #SwitchBubble #AlternativeMS2 #MS2Late #CuTurnoff] | 73.3 nM | 195 nM | 182 nM | 264 nM | 254 nM |
| AAAUAAAUAACUGAUACCAGUCGGACAACAUGAGGAUCACCCAUGUUCACCCAUGUUGAGGACCCUUGGCAGCAGAAAUAUAAAA [test (nupak+vienna] | 41.5 nM | – | 116 nM | – | 243 nM |
| UUAAGAGGCUAUCAAAUUUGAUUUUGUGAUACCAGAAUAAUUUUAUUCCCUUGGCAGCAUGACAUGAGGAUCACCCAUGUGUCUU [SSTheo A #2] | 33.8 nM | – | 40.2 nM | – | 34.6 nM |
| CUACAUUUGUAGAAACCGGUCACCAUUACUCGAGGACCGGUACGGCCGCCACUCGUGUCAUGUGAUACAUGAGGAUCACCCAUGU [Tryptophan A 10] | 21.7 nM | – | 26.2 nM | 27.1 nM | – |
| UAACAUGAGGAUCACCCAUGUUUGAAGGAACGAGGACCGGUACGGCCGCCACUCGACGAGUGGAUGAGAAGUGGGAUUGUGUGCU [Same State Trp A GF8] | 14.4 nM | 13 nM | 17.5 nM | 17.3 nM | 15.2 nM |
| GCACGACAUGAGGAUCACCCAUGUGCAGAUACCAGUAAUGUAUGUUACCCUUGGCAGCUGAGUAGGUCUGGAGGGCUAUAGGUAA [Same State Theophylline A GF12] | 10.6 nM | – | 18 nM | – | 13.7 nM |
| CGAUAUAAGACGGCCGCCACUAUUAAGUAACAAAAUAAACAUGAGGAUCACCCAUGUACAUGGGAUAGGACCGGGUCCAAUAACG [A1] | 48.3 nM | – | 163 nM | 166 nM | – |
| GGGCGCGUGGACUGGCGUGCUCCGCUCCGUCGAGGACCGGUACGGCCGCCACUCGACAUGAGGAUCACCCAUGUGUGAGCUCGCG [#1 Exclusion - Tryptophan A Attempt #17 (HarryS)] | 62.9 nM | – | 229 nM | 259 nM | – |
| UGUAUGUGAUCUGAUACCAGCGAUGAUAACCUGAGGAUCACCCUGGUAUGGCGAAAGCCUCGCCCUUGGCAGCAGAUCGCAUACU | 184 nM | 747 nM | 402 nM | 30.7 nM | 1210 nM |
| AUAAAAGGGUUAUAUAGAUUUAGGUCCAGUCGAGGACCGGUACGGCCGCCACUCGUACUGAAAUACAUGAGGAUCACCCAUGUUA [JR_SSTryptoA_Sub006] | 16.4 nM | – | 25.8 nM | 22.9 nM | – |
| UAUAUAUAGGCGGCCGCCACUGAUUUUCAUAUAUAUAUAACAUGAGGAUCACCCAUGUAGAUAUACAGGACCGGGCCUAUAUAUA [aaaA] | 17 nM | 16.1 nM | 16.5 nM | 14.7 nM | 13.3 nM |
| AUGACUAACAAAGAAGAUAAAAUGGGUGAACGAGGACCGGUACGGCCGCCACUCGGACAUGAGGAUCACCCAUGUCCAUGUGCAA [#23 Exclusion Tryptophan A] | 15.6 nM | – | 21.7 nM | 20.4 nM | – |
| UUGGGUUUGCGAAGGAGCGGGAAAUAUAUAUAUAUAAUCCUAACAUGAGGAUCACCCAUGUCCCAGGUAGGUCGCGCGGGUUUGG [12.M] | 42 nM | 59.5 nM | 61.9 nM | 54.3 nM | 51.2 nM |
| UUAUAAGUACCGGUCCUCAGAUCCUCAUGACGAGGACCGGUACGGCCGCCACUCGAAACAUGAGGAUCACCCAUGUAAUAAUAUC [Brourdmod09] | 20.6 nM | – | 56.6 nM | 59.3 nM | – |
| AGCCCGGGAGCGGCCGCCACUGGAGGCUGAGCGCGACAUGAGGAUCACCCAUGUGUGCCCGGCGUUAGGACCGGGCUCGCGUGGU [#1 Same State - Tryptophan B Attempt #23 (HarryS)] | 28.4 nM | 29.4 nM | 75 nM | 79.2 nM | 32.2 nM |
| GGGACAUCGGGAAGGAGCGCAUCCAAACCACACAUGAGGAUCACCCAUGUAUAAAUAUGCAUGCAGGUAGGUCGCCCGGUGUCUC [Ersoatus] | 79.5 nM | 104 nM | 131 nM | 117 nM | 121 nM |
| UUCAUGAGGAUUGAUACCAGCCACCAACAUGAGGAACUUACAUGAGGAUCACCCAUGUGAGGCCCUUGGCAGCAAGCAUACAUGA [Exclusion Theophylline B 3] | 10.1 nM | 10.6 nM | 16.7 nM | 48.5 nM | 11.5 nM |
| CUCUGAGUCCGUAAGGACUCAGAGGCGGAUACCAGCGAGGUCCAUCGCCCUUGGCAGCCGAACAUGAGGAUCACCCAUGUCGGUA [#1 Same State - Theophylline A Attempt #25 (HarryS)] | 11.6 nM | 9.76 nM | 12.6 nM | 19.8 nM | 11.5 nM |
| UUGUUGUUUGGAAGGAGCGUGGAUGAGUGUGGACAUGAGGAUCACCCAUGUUGGAUGAUACCGCAGGUAGGUCGCCGGGUGGUGG [11.aD] | 89.7 nM | 164 nM | 162 nM | 300 nM | 75.9 nM |
| UUGGUACGACAGCUCAUAUAAGCAUGUGAUACCAGACUGGAAACAGUCCCUUGGCAGCACUUUACAUGAGGAUCACCCAUGUCGG [EThA NP+V+V2 #3 +-Same Structure] | 76.6 nM | – | 201 nM | – | 212 nM |
| UUGGGUUUGUGAAGGAGCGGGAAAGUUUUAUAGUGAAUCCUAACAUGAGGAUCACCCAUGUCCCAGGUAGGUCGCGCGGGUUUGG [12.Q] | 240 nM | 134 nM | 115 nM | 144 nM | 80.8 nM |
| UGUUUGGUGCGCGAGUGUUGGAUAAUUGAUACCAGUGUAGAUGUGCGCCCUUGGCAGCGAAUCCUAACAUGAGGAUCACCCAUGU [5.Y] | 38.2 nM | – | 59.5 nM | – | 41.8 nM |
| AGACUUCGCAUAGGAAAACUAUGUGAAGUCCGAGGACCGGUACGGCCGCCACUCGUCCUCACAUGAGGAUCACCCAUGUAAAUAA [#OpenEnded 2 #CuTurnoff #Tail] | 22.7 nM | – | – | 24.5 nM | – |
| UCCUCCUCCGCAAGGAGGAGGAGUUGCGAUACCAGCACGGUAACGUGCCCUUGGCAGCGCACAUGAGGAUCACCCAUGUCAUGUU [#1 Exclusion - Theophylline A Attempt #11 (HarryS)] | 15 nM | – | 24.5 nM | – | 17.1 nM |
| AUUCAGAGAUCACAUGAGGAUCACCCAUGUCGAGGACCGGUACGGCCGCCACUCGCGGCGGUGAAAAUAGAUACAAAGUAUCUAU [Ex_TrypA - Vienna approves #2] | 25.5 nM | 50 nM | 61.8 nM | 45.9 nM | 284 nM |

Reference: the supplement of paper PMC9170038
